Data as given in patent publication US20230406942A1 (HORIZON THERAPEUTICS IRELAND DAC, published 2023).

Key:
[1] = biological target: T1, IGF-1R (coated on Maxisorp plates) (UniProt P08069 31-932, limits assumed); assay: competition ELISA, plate-coated IGF-1R, antibody titrated against 20 ng/mL IGF-1 biotin
T1 construct: also called the receptor
Method: (§1) Maxisorp plates were coated with 1.5 ug/mL of IGF-1R overnight at 4° C. Plates were washed and blocked with 1% BSA. Subsequently, serially diluted anti-IGF1R antibodies were incubated for 30 min at room temperature followed by an incubation with a final concentration of 20 ng/mL IGF-1 biotin. Plates were washed and streptavidin-horseradish peroxidase was added. After a final wash, 3,3′,5,5′-Tetramethylbenzidine was added for 8 minutes. The reaction was terminated with a HCL based stop solution. Plates were measured for absorbance at 450 nm, and the data was analyzed using Softmax Pro 7.1 software.

[2] = biological target: T1, IGF-1R (coated on Maxisorp plates); assay: competition ELISA, plate-coated IGF-1R, antibody titrated against 200 ng/mL IGF-2 biotin
Method: as §1, with “of 200” for “of 20”, “ng/mL of IGF-2” for “ng/mL IGF-1”

IGF-1R on NCI-H322 cells = IGF-1R on NCI-H322 cells (UniProt P08069 31-1367, limits assumed); assay: cell-based or functional assay
[3] = biological target: T2, Human IGF-I R (Glu 31-Asn 932 with a polyhistidine tag at the C-terminus) (human, UniProt P08069 31-932); assay: BLI (Octet RED96e), His-tagged IGF-1R on Ni-NTA sensors, Fab 0-100 nM, 1:1 global fit
T2 construct: range 31-932; Bought protein; captured on Ni-NTA biosensors for BLI; also called IGF1R; IGF-1R; not shown: C-terminal polyhistidine tag
From the text: Human IGF-I R (Glu 31-Asn 932 with a polyhistidine tag at the C-terminus) expressed from human 293 cells (HEK293) was purchased from ACROBiosystems (Newark, DE). Dip and Read Ni-NTA (NTA) Biosensors from Sartorius (Bohemia, NY) pre-immobilized with nickel-charged Tris-NTA, were enabled for kinetic characterization of novel anti-human IGF-I R antibodies. Briefly, antibody variants were digested into purified Fab fragments (to enable 1:1 binding and global fitting). The Fab[…] Fab kit from GENOVIS (Cambridge, MA) was used to generate a monovalent binding Fab domain of each antibody variant, Fab fragments are subsequently separated from Fc using the CaptureSelect™ Fc column. Binding of variant Fabs to NTA-captured human IGF-I R (His-tagged) was monitored by biolayer interferometry (BLI) on an Octet RED96e (Sartorius). NTA biosensors were charged with 10 mM NiCl2, then loaded with His-tagged human IGF-I R at approximately 5 ug/mL to an average loading response of 0.67 nm shift. Variant Fabs were assayed from 0-100 nM in 10X kinetics buffer (1X PBS, 0.1% BSA, 0.02% Tween-20 plus Kathon as a preservative) from Sartorius. Binding kinetics and affinities were determined using the Octet Analysis Studio Software (Sartorius) by applying a 1:1 global fitting to double-referenced subtracted data.

T2 sequence (P08069 31-932 limits assumed): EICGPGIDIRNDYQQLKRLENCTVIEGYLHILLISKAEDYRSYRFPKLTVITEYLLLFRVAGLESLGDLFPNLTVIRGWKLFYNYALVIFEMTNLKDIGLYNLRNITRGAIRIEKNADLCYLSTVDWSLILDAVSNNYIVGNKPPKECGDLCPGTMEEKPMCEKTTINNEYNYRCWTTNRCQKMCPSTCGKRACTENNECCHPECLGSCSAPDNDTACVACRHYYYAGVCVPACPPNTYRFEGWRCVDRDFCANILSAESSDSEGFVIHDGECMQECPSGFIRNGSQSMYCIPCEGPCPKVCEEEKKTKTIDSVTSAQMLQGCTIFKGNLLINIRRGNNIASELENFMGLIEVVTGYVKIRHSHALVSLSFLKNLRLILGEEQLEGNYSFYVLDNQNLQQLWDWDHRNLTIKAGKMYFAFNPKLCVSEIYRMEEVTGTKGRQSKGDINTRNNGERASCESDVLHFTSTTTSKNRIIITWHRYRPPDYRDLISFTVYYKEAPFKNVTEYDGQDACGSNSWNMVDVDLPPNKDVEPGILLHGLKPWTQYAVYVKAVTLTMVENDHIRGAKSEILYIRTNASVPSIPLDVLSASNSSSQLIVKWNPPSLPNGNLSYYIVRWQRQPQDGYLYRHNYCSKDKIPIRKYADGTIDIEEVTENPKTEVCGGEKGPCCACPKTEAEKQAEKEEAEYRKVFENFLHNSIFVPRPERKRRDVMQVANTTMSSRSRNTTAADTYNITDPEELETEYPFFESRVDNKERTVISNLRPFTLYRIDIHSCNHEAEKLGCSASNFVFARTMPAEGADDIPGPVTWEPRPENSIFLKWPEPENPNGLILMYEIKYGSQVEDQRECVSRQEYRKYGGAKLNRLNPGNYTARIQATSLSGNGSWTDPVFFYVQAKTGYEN
T1 sequence (P08069 31-932 limits assumed): as above
IGF-1R on NCI-H322 cells, sequence (P08069 31-1367 limits assumed): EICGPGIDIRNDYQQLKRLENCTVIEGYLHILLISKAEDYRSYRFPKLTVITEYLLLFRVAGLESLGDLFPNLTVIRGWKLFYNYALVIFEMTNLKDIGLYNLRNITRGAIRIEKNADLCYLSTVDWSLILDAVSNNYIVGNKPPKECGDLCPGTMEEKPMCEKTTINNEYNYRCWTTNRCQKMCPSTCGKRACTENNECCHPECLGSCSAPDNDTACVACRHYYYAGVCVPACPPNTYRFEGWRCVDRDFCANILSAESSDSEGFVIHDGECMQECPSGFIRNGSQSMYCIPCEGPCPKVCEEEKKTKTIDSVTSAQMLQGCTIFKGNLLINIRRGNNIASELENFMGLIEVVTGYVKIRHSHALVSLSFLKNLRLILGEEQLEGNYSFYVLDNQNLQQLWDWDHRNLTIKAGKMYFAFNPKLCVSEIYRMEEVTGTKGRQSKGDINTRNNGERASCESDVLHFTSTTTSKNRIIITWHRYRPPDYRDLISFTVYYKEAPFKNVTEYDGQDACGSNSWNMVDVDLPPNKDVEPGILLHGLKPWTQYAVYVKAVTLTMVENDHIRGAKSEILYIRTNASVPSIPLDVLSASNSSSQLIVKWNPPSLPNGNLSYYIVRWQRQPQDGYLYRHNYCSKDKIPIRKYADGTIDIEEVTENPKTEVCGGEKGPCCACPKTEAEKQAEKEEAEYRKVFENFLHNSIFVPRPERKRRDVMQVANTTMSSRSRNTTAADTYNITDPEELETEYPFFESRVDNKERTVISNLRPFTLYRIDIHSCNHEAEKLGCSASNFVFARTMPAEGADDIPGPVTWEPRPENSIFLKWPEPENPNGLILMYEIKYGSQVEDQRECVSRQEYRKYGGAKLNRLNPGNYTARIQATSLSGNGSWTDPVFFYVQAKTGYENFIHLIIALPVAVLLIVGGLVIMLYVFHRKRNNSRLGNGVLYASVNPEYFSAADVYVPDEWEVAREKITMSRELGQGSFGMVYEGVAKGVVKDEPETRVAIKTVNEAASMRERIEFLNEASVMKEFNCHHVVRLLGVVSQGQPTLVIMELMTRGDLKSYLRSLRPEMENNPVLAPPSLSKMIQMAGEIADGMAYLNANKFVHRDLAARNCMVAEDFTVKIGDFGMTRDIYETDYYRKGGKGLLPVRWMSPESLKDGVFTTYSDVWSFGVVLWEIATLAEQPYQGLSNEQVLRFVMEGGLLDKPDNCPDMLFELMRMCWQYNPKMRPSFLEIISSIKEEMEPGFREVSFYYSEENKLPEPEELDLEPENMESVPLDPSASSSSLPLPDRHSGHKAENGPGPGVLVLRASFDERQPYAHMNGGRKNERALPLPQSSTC

Binder	IC50 [1] [µg/mL]	IC50 [2] [µg/mL]	Inhibition of Phosphorylation IC50 (IGF-1R on NCI-H322 cells) [ng/mL]	Kd [3] [nM]	koff [3] [s⁻¹]	kon [3] [M⁻¹ s⁻¹]
A11 antibody (antibody, V domains shown, Whole antibody) VH: QVELVESGGGVVQPGRSQRLSCAASGFTFSSYGMHWVRQAPGKGLEWVAYIWFDGSSTYYADSVRGRFTISRDNSKNTLYLQMNSLRAEDTAVYFCARELGRRYFDLWGRGTLVSVSS VL: EIVLTQSPATLSLSPGERATLSCRASQSVSSYLAWYQQKPGQAPRLLIYDASKRATGIPARFSGSGSGTDFTLTISSLEPEDFAVYYCQQRSKYPPWTFGQGTKVESK	0.351	0.158	11.5			
C10 antibody (antibody, V domains shown) VH: QVELVESGGGVVQPGRSQRLSCAASGFTFSSAGMHWVRQAPGKGLEWVAIIWADGSSTYYADSVRGRFTISRDNSKNTLYLQMNSLRAEDTAVYFCARELGRRYFDLWGRGTLVSVSS VL: EIVLTQSPATLSLSPGERATLSCRASQSVSSYLAWYQQKPGQAPRLLIYDASKRATGIPARFSGSGSGTDFTLTISSLEPEDFAVYYCQQRSKYPPWTFGQGTKVESK			6.5			
B02 Fab (Fab, V domains shown) VH: QVELVESGGGVVQPGRSQRLSCAASGFTFSSTGMHWVRQAPGKGLEWVAYIWFDGSSTYYADSVRGRFTISRDNSKNTLYLQMNSLRAEDTAVYFCARELNRRYFDLWGRGTLVSVSS VL: EIVLTQSPATLSLSPGERATLSCRASQSVSSYLAWYQQKPGQAPRLLIYDASKRATGIPARFSGSGSGTDFTLTISSLEPEDFAVYYCQQRSKYPPWTFGQGTKVESK				1.54	0.00125	810000
D03 Fab (Fab, V domains shown, also called clone D03) VH: QVELVESGGGVVQPGRSQRLSCAASGFTFSSHGMHWVRQAPGKGLEWVAYIWFDGSSTYYADSVRGRFTISRDNSKNTLYLQMNSLRAEDTAVYFCARELGRRYFDLWGRGTLVSVSS VL: EIVLTQSPATLSLSPGERATLSCRASQSVSSALAWYQQKPGQAPRLLIYDASKRATGIPARFSGSGSGTDFTLTISSLEPEDFAVYYCQQRSKYPPWTFGQGTKVESK				0.407	0.000603	1.48e+06
E01 Fab (Fab, V domains shown) VH: QVELVESGGGVVQPGRSQRLSCAASGFTFSSYGMHWVRQAPGKGLEWVAIIWFDGSSTYYADSVRGRFTISRDNSKNTLYLQMNSLRAEDTAVYFCARELGRRYFDLWGRGTLVSVSS VL: EIVLTQSPATLSLSPGERATLSCRASQSVSSYLAWYQQKPGQAPRLLIYDASKRATGIPARFSGSGSGTDFTLTISSLEPEDFAVYYCQQRSKYPPWTFGQGTKVESK				0.179	0.000298	2.66e+06
F02 Fab (Fab, V domains shown) VH: QVELVESGGGVVQPGRSQRLSCAASGFTFSSHGMHWVRQAPGKGLEWVATIWFDGSSTYYADSVRGRFTISRDNSKNTLYLQMNSLRAEDTAVYFCARELGRRYFDLWGRGTLVSVSS VL: EIVLTQSPATLSLSPGERATLSCRASQSVSSTLAWYQQKPGQAPRLLIYDASKRATGIPARFSGSGSGTDFTLTISSLEPEDFAVYYCQQRSKYPPWTFGQGTKVESK				1.92	0.0023	1.2e+06
B09 antibody (antibody, V domains shown, Whole antibody) VH: QVELVESGGGVVQPGRSQRLSCAASGFTFSSHGMHWVRQAPGKGLEWVAIIAGDASTTYYADSVRGRFTISRDNSKNTLYLQMNSLRAEDTAVYFCARELGRRYFDLWGRGTLVSVSS VL: EIVLTQSPATLSLSPGERATLSCRASQSVSSYLAWYQQKPGQAPRLLIYDASKRATGIPARFSGSGSGTDFTLTISSLEPEDFAVYYCQQRSKYPPWTFGQGTKVESK	0.337	0.153	8.3			
C10 Fab (Fab, V domains shown) VH: QVELVESGGGVVQPGRSQRLSCAASGFTFSSAGMHWVRQAPGKGLEWVAIIWADGSSTYYADSVRGRFTISRDNSKNTLYLQMNSLRAEDTAVYFCARELGRRYFDLWGRGTLVSVSS VL: EIVLTQSPATLSLSPGERATLSCRASQSVSSYLAWYQQKPGQAPRLLIYDASKRATGIPARFSGSGSGTDFTLTISSLEPEDFAVYYCQQRSKYPPWTFGQGTKVESK				0.447	0.000485	1.08e+06
B02 antibody (antibody, V domains shown, Whole antibody) VH: QVELVESGGGVVQPGRSQRLSCAASGFTFSSTGMHWVRQAPGKGLEWVAYIWFDGSSTYYADSVRGRFTISRDNSKNTLYLQMNSLRAEDTAVYFCARELNRRYFDLWGRGTLVSVSS VL: EIVLTQSPATLSLSPGERATLSCRASQSVSSYLAWYQQKPGQAPRLLIYDASKRATGIPARFSGSGSGTDFTLTISSLEPEDFAVYYCQQRSKYPPWTFGQGTKVESK	0.386	0.115	13.5			
B10 antibody (antibody, V domains shown, Whole antibody) VH: QVELVESGGGVVQPGRSQRLSCAASGFTFSSYGMHWVRQAPGKGLEWVATIWFDGSSTYYADSVRGRFTISRDNSKNTLYLQMNSLRAEDTAVYFCARELGRRYFDLWGRGTLVSVSS VL: EIVLTQSPATLSLSPGERATLSCRASQSVSSYLAWYQQKPGQAPRLLIYDASKRATGIPARFSGSGSGTDFTLTISSLEPEDFAVYYCQQRSKYPPWTFGQGTKVESK	0.395	0.176	16.2			
H11 Fab (Fab, V domains shown) VH: QVELVESGGGVVQPGRSQRLSCAASGFTFSSYGMHWVRQAPGKGLEWVATIWHDGSSTYYADSVRGRFTISRDNSKNTLYLQMNSLRAEDTAVYFCARELGRRYFDLWGRGTLVSVSS VL: EIVLTQSPATLSLSPGERATLSCRASQSVSSALAWYQQKPGQAPRLLIYDASKRATGIPARFSGSGSGTDFTLTISSLEPEDFAVYYCQQRGKYPPWTFGQGTKVESK				0.418	0.000744	1.78e+06
D10 antibody (antibody, V domains shown) VH: QVELVESGGGVVQPGRSQRLSCAASGFTFSSYGMHWVRQAPGKGLEWVAIINFDGSSTYYADSVRGRFTISRDNSKNTLYLQMNSLRAEDTAVYFCARELGRRYFDLWGRGTLVSVSS VL: EIVLTQSPATLSLSPGERATLSCRASQSVSSYLAWYQQKPGQAPRLLIYDASKRATGIPARFSGSGSGTDFTLTISSLEPEDFAVYYCQQRSKYPPWTFGQGTKVESK			6.7			
B10 Fab (Fab, V domains shown) VH: QVELVESGGGVVQPGRSQRLSCAASGFTFSSYGMHWVRQAPGKGLEWVATIWFDGSSTYYADSVRGRFTISRDNSKNTLYLQMNSLRAEDTAVYFCARELGRRYFDLWGRGTLVSVSS VL: EIVLTQSPATLSLSPGERATLSCRASQSVSSYLAWYQQKPGQAPRLLIYDASKRATGIPARFSGSGSGTDFTLTISSLEPEDFAVYYCQQRSKYPPWTFGQGTKVESK				0.898	0.000826	921000
B09 Fab (Fab, V domains shown) VH: QVELVESGGGVVQPGRSQRLSCAASGFTFSSHGMHWVRQAPGKGLEWVAIIAGDASTTYYADSVRGRFTISRDNSKNTLYLQMNSLRAEDTAVYFCARELGRRYFDLWGRGTLVSVSS VL: EIVLTQSPATLSLSPGERATLSCRASQSVSSYLAWYQQKPGQAPRLLIYDASKRATGIPARFSGSGSGTDFTLTISSLEPEDFAVYYCQQRSKYPPWTFGQGTKVESK				1.13	0.000799	705000
A11 Fab (Fab, V domains shown) VH: QVELVESGGGVVQPGRSQRLSCAASGFTFSSYGMHWVRQAPGKGLEWVAYIWFDGSSTYYADSVRGRFTISRDNSKNTLYLQMNSLRAEDTAVYFCARELGRRYFDLWGRGTLVSVSS VL: EIVLTQSPATLSLSPGERATLSCRASQSVSSYLAWYQQKPGQAPRLLIYDASKRATGIPARFSGSGSGTDFTLTISSLEPEDFAVYYCQQRSKYPPWTFGQGTKVESK				0.849	0.00076	895000
